Source: patent US20210196796A1 (SYNTHEKINE, published 2021)
Residue numbers refer to the chain shown, from its start. Names may count otherwise.

T1: orthogonal hCD122 receptor (hoRb), hCD122 with H133D and Y134F (human, UniProt P14784 27-550)
T1 sequence: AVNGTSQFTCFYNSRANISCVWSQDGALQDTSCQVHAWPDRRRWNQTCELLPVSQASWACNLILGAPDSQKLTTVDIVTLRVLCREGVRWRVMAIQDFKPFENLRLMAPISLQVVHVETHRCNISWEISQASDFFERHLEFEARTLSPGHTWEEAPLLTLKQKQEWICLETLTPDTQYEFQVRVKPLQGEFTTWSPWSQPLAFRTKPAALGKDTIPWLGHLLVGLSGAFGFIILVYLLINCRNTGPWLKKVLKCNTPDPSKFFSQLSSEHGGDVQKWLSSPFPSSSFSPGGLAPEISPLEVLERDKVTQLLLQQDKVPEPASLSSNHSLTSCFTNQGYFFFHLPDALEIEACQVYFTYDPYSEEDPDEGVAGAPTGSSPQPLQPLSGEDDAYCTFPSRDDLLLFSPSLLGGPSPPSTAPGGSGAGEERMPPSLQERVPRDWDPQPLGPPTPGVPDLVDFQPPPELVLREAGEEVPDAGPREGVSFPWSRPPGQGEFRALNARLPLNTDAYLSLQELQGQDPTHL

B1: ΔR81, SQVLKA (ligand)
chain: APTSSSTKKTQLQLSQLLVLLKAILNGINNYKNPKLTRMLTFKFYMPKKATELKHLQCLEEELKPLEEVLNLAQSKNFHLPRDLISNINVIVLELKGSETTFMCEYADETATIVEFLNRWITFCQSIISTLT
B2: Δ88N, SQVLKA (ligand)
chain: B1 chain with P81R, R82P, D83R, L84D, I85L, S86I, N87S
B3: R81I, SQVLKA (ligand)
chain: APTSSSTKKTQLQLSQLLVLLKAILNGINNYKNPKLTRMLTFKFYMPKKATELKHLQCLEEELKPLEEVLNLAQSKNFHLIPRDLISNINVIVLELKGSETTFMCEYADETATIVEFLNRWITFCQSIISTLT
B4: V91K, SQVLKA (ligand)
chain: B3 chain with I81R, V91K
B5: R81Y, SQVLKA (ligand)
chain: B3 chain with I81Y
B6: V91R, SQVLKA (ligand)
chain: B3 chain with I81R, V91R
B7: R81D, SQVLKA (ligand)
chain: B3 chain with I81D
B8: N88Q, SQVLKA (ligand)
chain: B3 chain with I81R, N88Q
B9: L85V, SQVLKA (ligand)
chain: B3 chain with I81R, L85V
B10: I86V, SQVLKA (ligand)
chain: B3 chain with I81R, I86V
B11: N88E, SQVLKA (ligand)
chain: B3 chain with I81R, N88E
B12: ΔL14, SQVLKA (ligand)
chain: APTSSSTKKTQLQSQLLVLLKAILNGINNYKNPKLTRMLTFKFYMPKKATELKHLQCLEEELKPLEEVLNLAQSKNFHLRPRDLISNINVIVLELKGSETTFMCEYADETATIVEFLNRWITFCQSIISTLT
B13: ΔT3, SQVLKA (ligand)
chain: B12 chain with T3S, S6T, T7K, K9T, T10Q, Q11L, L12Q, Q13L

Target: T1, orthogonal hCD122 receptor (hoRb), …
Assay: cell-based or functional assay
For Relative Proliferation Fold Change 3F8 1:10 in this document: reference of the scale not given here.
For Relative Proliferation Fold Change 3F8 1:2 in this document: reference of the scale not given here.
For Relative Proliferation Fold Change 3F8 1:50 in this document: reference of the scale not given here.
For Relative Proliferation Fold Change NKL 1:10 in this document: reference of the scale not given here.
For Relative Proliferation Fold Change NKL 1:2 in this document: reference of the scale not given here.
For Relative Proliferation Fold Change NKL 1:50 in this document: reference of the scale not given here.

| Binder | NKL Ortho Proliferation Signal 1:2 | NKL Ortho Proliferation Signal 1:10 | NKL Ortho Proliferation Signal 1:50 | Relative Proliferation Fold Change NKL 1:2 [fold] | Relative Proliferation Fold Change NKL 1:10 [fold] | Relative Proliferation Fold Change NKL 1:50 [fold] |
| --- | --- | --- | --- | --- | --- | --- |
| B1 | 62400 | 68800 | 31900 | 4.84 | 4.09 | 2.1 |
| B2 | 4610 | 7470 | 6690 | 0.42 | 0.59 | 0.58 |
| B3 | 52800 | 58000 | 27300 | 3.84 | 3.85 | 1.92 |
| B4 | 5180 | 5210 | 4940 | 0.74 | 0.63 | 0.53 |
| B5 | 59800 | 77900 | 49500 | 3.64 | 4.64 | 3.43 |
| B6 | 8530 | 5580 | 4420 | 0.86 | 0.53 | 0.44 |
| B7 | 71800 | 73800 | 44400 | 3.64 | 4.35 | 3.07 |
| B8 | 4980 | 6960 | 6240 | 0.43 | 0.53 | 0.5 |
| B9 | 56300 | 49600 | 24200 | 3.94 | 3.34 | 1.71 |
| B10 | 39900 | 38000 | 18400 | 3.82 | 2.67 | 1.42 |
| B11 | 6410 | 7090 | 6480 | 0.49 | 0.53 | 0.51 |
| B12 | 31800 | 23500 | 12200 | 2.38 | 1.6 | 0.86 |
| B13 | 60800 | 64600 | 32300 | 4 | 3.73 | 1.99 |

Target: T1, orthogonal hCD122 receptor (hoRb), …
Assay: cell-based or functional assay
Remark: another data set of the same source

| Binder | 3F8 Ortho Proliferation Signal 1:2 [cts/min] | 3F8 Ortho Proliferation Signal 1:10 [cts/min] | 3F8 Ortho Proliferation Signal 1:50 [cts/min] | Relative Proliferation Fold Change 3F8 1:2 [fold] | Relative Proliferation Fold Change 3F8 1:10 [fold] | Relative Proliferation Fold Change 3F8 1:50 [fold] |
| --- | --- | --- | --- | --- | --- | --- |
| B1 | 28600 | 32200 | 22000 | 46.4 | 39 | 24 |
| B2 | 486 | 580 | 666 | 2.59 | 0.79 | 1.33 |
| B3 | 40000 | 46000 | 20900 | 55.9 | 48.8 | 49.4 |
| B4 | 3720 | 992 | 804 | 13.4 | 1.44 | 1.25 |
| B5 | 35800 | 46000 | 16500 | 4.14 | 16.6 | 17.6 |
| B6 | 12500 | 5140 | 2850 | 35.6 | 10 | 2.93 |
| B7 | 39300 | 30000 | 10400 | 7.51 | 13.6 | 11.5 |
| B8 | 644 | 914 | 1070 | 1.25 | 0.84 | 0.6 |
| B9 | 44300 | 41300 | 18900 | 39.9 | 44.6 | 14.3 |
| B10 | 34000 | 32600 | 15100 | 0.8 | 3.76 | 3.66 |
| B11 | 326 | 588 | 850 | 1 | 1.2 | 1.44 |
| B12 | 30300 | 24500 | 8130 | 125 | 26.5 | 13.2 |
| B13 | 38900 | 34800 | 16000 | 30.5 | 15.1 | 7.52 |
